From patent publication US20040101905A1, “Product” (priority 2000, published 2004)

Key:
FcγRI receptor = biological target: T1, FcγRI receptor (Homo sapiens, UniProt P12314); test: Affinity selection of phage displayed peptides on IFN-γ stimulated U937 cells (FcγRI binding)
T1 construct: To increase FcγRI expression the U937-cells were treated with 100 U/ml IFN-γ for 40 hours; endogenous in cells; host or cells: U937 cells stimulated with IFN-γ
Procedure: (§1) Affinity selection: For affinity selection, […] stimulated U937cells were washed in 20 ml pan-wash buffer (PBS pH7.4, 1% BSA, 1 mMCaCl2, 10 mMMgCl2) and then resuspended in 1 ml pan-wash buffer. Portions (1×10^10 E. coli K91K transducing units (TU)) of each library were added to the cells. Cells and phages were incubated with agitation for 1.5 hours at 4° C. Unbound phages were removed by washing the cells 6 times with 2 ml pan-wash buffer. Bound phages were eluted in 200 μl 0.1M HCl-glycine pH 2.2 for 10 minutes on ice. The eluates were neutralised with 17 μl 1.5M Tris pH 8.8. Phages were amplified (essentially as described in Smith and Scott Methods Enzymol. 1993;217:228-57). A second round of affinity selection was performed using an input of 10^9 phages.
Peptide sequences of affinity selected phage clones: PCR products covering the peptide coding insert were created using the primers fUSE5 for (5′ […] 3′) and fUSE5 (5′[…] 3′). The PCR products were sequenced (GATC/GmBh Germany) using the primer (5′[…] 3′) and the results shown in Table 1.

[1] = tested on: IFN-γ stimulated U937 cells; test: Phage binding to IFN-γ stimulated U937 cells; type: cell-based, human; conditions: for % output / Output (number of bound phages): U937-INF-γ, input 5 × 10^7 TU; for Output (number of bound phages): 3×10^6 cells, acid eluate
Procedure: (§2) Cells: U937 cells (ATCC CRL-1593) and K562 cells (ATCC CCL-243) were maintained in RPMI 1640 medium (Gibco laboratories) supplemented with 10% heat-inactivated FCS (Biological Industries, Beth Haemark), 2 mM L-glutamine, 100 U/ml penicillin (Gibco). Cells-were incubated at 5% CO2 and 37° C. at density ranging from 10^5 to 10^6 cells/ml.
To increase FcγRI expression the U937-cells were treated with 100 U/ml IFN-γ for 40 hours.
as §1
(§3) Cell binding of individual phages: Phage expressing the peptide CLRSGLGC were analysed for binding unstimulated U937 cells, IFN-γ stimulated U937 cells, as well as K562 cells. Both U937 and […]. Whereas INF-γ stimulated U937 cells express an increased number of FcγRI, K562-cells preferentially express FcγRII. 5×10^7 TU of individual phage clones were added to 3×10^6 cells in pan-wash buffer, incubated and eluted as described above.

unstimulated U937 cells = test: Phage binding to unstimulated U937 cells; type: cell-based, human; conditions: input 5 × 10^7 TU; for Output (number of bound phages): 3×10^6 cells
Procedure: as §2, §1, §3

K562 cells = test: Phage binding to K562 cells; type: cell-based, human; conditions: input 5 × 10^7 TU; for Output (number of bound phages): 3×10^6 cells
Procedure: as §2, §1, §3

[2] = biological target: T2, SC (secretory component, extracellular portion of the poly Ig receptor) (Homo sapiens, UniProt P01833); test: ELISA of phage binding to immobilised SC; conditions: for SC binding of single phage clones (ELISA): immobilised colostrum SC
T2 construct: “secretory component”—the extracellular portion of the poly Ig receptor; from tissue; host or cells: human colostrum
T2 sequence (P01833 19-603 limits assumed): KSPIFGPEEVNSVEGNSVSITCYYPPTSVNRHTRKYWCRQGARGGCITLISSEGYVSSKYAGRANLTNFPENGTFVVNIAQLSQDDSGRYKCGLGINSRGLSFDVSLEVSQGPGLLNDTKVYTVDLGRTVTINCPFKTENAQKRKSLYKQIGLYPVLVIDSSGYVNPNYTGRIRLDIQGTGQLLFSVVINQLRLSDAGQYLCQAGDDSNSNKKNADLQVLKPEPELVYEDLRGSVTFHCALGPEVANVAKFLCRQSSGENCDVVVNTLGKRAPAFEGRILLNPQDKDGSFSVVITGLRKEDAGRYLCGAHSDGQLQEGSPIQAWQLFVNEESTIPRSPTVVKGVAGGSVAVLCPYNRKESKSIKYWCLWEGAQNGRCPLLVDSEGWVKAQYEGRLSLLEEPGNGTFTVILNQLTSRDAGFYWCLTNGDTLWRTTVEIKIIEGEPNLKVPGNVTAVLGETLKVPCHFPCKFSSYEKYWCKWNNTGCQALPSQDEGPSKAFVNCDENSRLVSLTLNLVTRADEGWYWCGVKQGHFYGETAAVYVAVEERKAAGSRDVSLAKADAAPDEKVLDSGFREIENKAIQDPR
Procedure: Affinity selection: Free SC purified from human colostrum by Jackaline-Sepharose column (Pharmacia Biotech, Uppsala, Sweden) (Brandtzaeg P. Scand. J. Immunol. 1974, 3:579-88) was used. SC was immobilised in Nunc MaxiSorp (Costar) tubes at approximately 30 μg/ml in a volume of 500 μl in each tube at 4° C. ON. The tubes were blocked with 1% BSA or 1% milk powder in PBS for 1 h at RT. Approximately 10^10 TU from each library were pre incubated with PBS and 1% BSA or 1% milk powder (1:1) for 1 h at 4° C. before they were added to the tubes and incubated at RT for 1.5 h. The tubes were washed 6 times with PBS/0.05% Tween 20. Bound phage were eluted by incubation with 500 μl 0.1M HCl-glycine pH 2.2 for 10 min and neutralised with 75 μl 0.1M Tris pH 9.1. Phage were amplified essentially as described by Smith and Scott (Methods Enzymol., 1993, 217:228-257) and two additional rounds of affinity selection were performed.
ELISA assay. The purified colostrum SC was coated at 30 μg/ml in Nunc MaxiSorb wells in PBS at 4° C. ON. The wells were blocked with 200 μl PBS with 1% BSA or 1% milk powder for 1 h at RT. Phage supernatants from amplified eluates or single colonies were diluted 1:1 in blocking buffer, added to the wells and allowed to react with immobilsed SC for 1.5 h at RT. The wells were washed 6 times with PBS/0.05% Tween and bound phage were detected by adding a horse radish peroxidase (HRP)/Anti-M13 IgG conjugate (Pharmacia) 1:4000 in PBS with 1% BSA or 1% milk powder. After incubation for 1 h at RT, washing with PBS/[…] and addition of ABTS substrate solution (ABTS tablets from Boehringer Mannheim in citrate buffer, pH 4.0) the ABTS-HRP reactions were read in a microtiter plate reader set at […] (Dynatech MR 700).

[3] = biological target: T3, FcFcR (recombinant dimeric soluble human FcγRI) (Homo sapiens, UniProt P12314); test: Binding of phage displayed peptides to recombinant dimeric FcγRI (FcFcR) immobilised via protein A
T3 construct: the extracelluar part of the human FcγRI genetically fused to human IgG4; made in house; host or cells: mouse myeloma cell line NSO (lysate of transfected cells, not purified)
T3 sequence (P12314 16-292 limits assumed): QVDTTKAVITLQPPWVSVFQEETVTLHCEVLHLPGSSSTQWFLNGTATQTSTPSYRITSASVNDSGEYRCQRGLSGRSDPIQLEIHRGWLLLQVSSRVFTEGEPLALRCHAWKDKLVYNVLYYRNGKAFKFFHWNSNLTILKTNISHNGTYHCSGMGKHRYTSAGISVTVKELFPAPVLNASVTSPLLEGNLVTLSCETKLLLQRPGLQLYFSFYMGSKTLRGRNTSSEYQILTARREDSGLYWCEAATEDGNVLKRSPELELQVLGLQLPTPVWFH
Procedure: (§4) Protein A was immobilised in wells at 10 μg/ml in a volume of 200 μl at 4° C. overnight (ON). The wells were blocked with 1% BSA in PBS for 1 h at room temperature (RT). Lysate from FcFcR-transfected and untransfected cells were added to the wells and incubated at RT for 2 h. The wells were washed and new lysate was added zero, one or two times following 2 h incubation at RT. The wells were washed 7 times with PBS/0.5% Tween 20. 200 μl biotinylated human IgG3 in PBS (1 μg/ml) was added to the wells. The wells were washed as above and binding of biotinylated IgG3 was detected with streptavidin and […] (FIG. 2).
(§5) Wells were coated as described above with lysate from FcFcR transfected NSO cells added three times. Phages displaying the peptide CLRSGLGC were added to the wells and incubated at RT for 1.5 h. The wells were washed 8 times with PBS/0.5% Tween 20. Bound phages were eluted by incubation with 200 μl 0.1M HCl-glycine pH 2.2 for 10 min. and neutralised with 17 μl 0.1M Tris pH 8.8. The number of bound phages were determined as E. coli K91K TU's (Table 4).

[4] = Phage binding to control wells (protein A with lysate from untransfected NSO cells; protein A blocked with BSA)
Procedure: as §4, §5

SC = biological target: T4, SC (Homo sapiens, UniProt P01833); test: Inhibition assay of SC binding phages; conditions: phages CWTSGARWRLC and CVVWMGFQQVC pre incubated with competitor
T4 construct: “secretory component”—the extracellular portion of the poly Ig receptor; from tissue; host or cells: human colostrum
T4 sequence (P01833 19-603 limits assumed): as the sequence (P01833 19-603 limits assumed) above
Procedure: Inhibition assay of SC binding phages: Nunc MaxiSorb 96 wells plates were coated with 30 μg/ml of purified colostrum SC at 4° C. ON. The plates were blocked in 1% milk powder for 1 h at RT before adding phage. Phage were pre incubated with […] polymeric IgA (pIgA), pIgM or Streptococcus pneumoniae secretory IgA binding protein (SpsA) in PBS/1% milk powder. SpsA is an streptococcal produced SC binding protein (Hammerschmidt et al. Mol Microbiol 1997 sep 25 (6): 1113-24). After incubation for 1.5 h at RT the plates were washed 6 times before HRP/Anti-M13 conjugate (Pharmacia) 1:4000 in PBS with 1% milk powder was added. 6 times of washing with PBS/0.05% Tween were followed by the ABTS substrate solution. The ABTS-HRP reaction was read in a microtiter plate reader set at 405 nm. All samples were run in duplicates.

T1 sequence (P12314 16-374): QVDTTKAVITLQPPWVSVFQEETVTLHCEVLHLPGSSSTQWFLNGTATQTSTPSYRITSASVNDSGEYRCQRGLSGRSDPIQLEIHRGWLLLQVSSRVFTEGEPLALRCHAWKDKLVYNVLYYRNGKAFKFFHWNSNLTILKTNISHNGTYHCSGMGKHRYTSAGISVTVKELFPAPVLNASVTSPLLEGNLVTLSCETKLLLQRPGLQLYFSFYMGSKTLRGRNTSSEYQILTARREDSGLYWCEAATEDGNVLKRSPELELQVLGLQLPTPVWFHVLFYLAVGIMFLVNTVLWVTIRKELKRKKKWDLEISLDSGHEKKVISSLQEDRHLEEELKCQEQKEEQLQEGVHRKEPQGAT

CLRSGRGC
binding to the FcγRI receptor (FcγRI receptor): shown to bind the FcγRI receptor

CGPGGTVGYTC [CONTROL, control phage displaying an irrelevant insert (…), reference compound]
% output [1]: <0.0004%
Output (number of bound phages) [1]: <2 × 10^2 TU
% output (unstimulated U937 cells): <0.0004%
Output (number of bound phages) (unstimulated U937 cells): <2 × 10^2 TU
% output (K562 cells): <0.0004%
Output (number of bound phages) (K562 cells): <2 × 10^2 TU

CGRVNTWLPQC
binding to the FcγRI receptor (FcγRI receptor): shown to bind the FcγRI receptor

CRRSGQGC
binding to the FcγRI receptor (FcγRI receptor): shown to bind the FcγRI receptor

CLRSGSGC
binding to the FcγRI receptor (FcγRI receptor): shown to bind the FcγRI receptor

CAWHYRFCGAAHSADGACREVFLVC
binding to the poly Ig receptor [2]: shown to bind the poly Ig receptor
SC binding of single phage clones (ELISA) [2]: positive

CLRSGLGC
times more phages eluted compared to the irrelevant control phage ([1]; IFN-γ stimulated U937 cells): More than 500 times
% output [1]: 0.2%
Output (number of bound phages) [1]: 1 × 10^5 TU
binding to IFN-γ stimulated U937 cells compared to unstimulated U937 cells and K562 cells ([1]; same number of cells): bound significantly better to IFN-γ stimulated U937 cells
% output (unstimulated U937 cells): 0.028%
Output (number of bound phages) (unstimulated U937 cells): 1.4 × 10^4 TU
% output (K562 cells): 0.02%
Output (number of bound phages) (K562 cells): 1.4 × 10^4 TU
binding to wells with immobilised FcFcR compared to wells with no FcR activity [3]: significant better binding
% output ([3]; lysate from FcFcR transfected cells): 0.3%
Output (number of bound phages) ([3]; lysate from FcFcR transfected cells, input 2.5 × 10^8): 6.8 × 10^5 TU
% output [4]: 0.05%
Output (number of bound phages) ([4]; input 2.5 × 10^8): 1.2 × 10^5 TU
binding to the FcγRI receptor (FcγRI receptor): shown to bind the FcγRI receptor

CLRSGLHC
binding to the FcγRI receptor (FcγRI receptor): shown to bind the FcγRI receptor

CWTSGARWRLC
binding to the poly Ig receptor [2]: shown to bind the poly Ig receptor
SC binding of single phage clones (ELISA) [2]: SC binding

CLRSGAGC
binding to the FcγRI receptor (FcγRI receptor): shown to bind the FcγRI receptor

CSAGRACCRYC
binding to the FcγRI receptor (FcγRI receptor): shown to bind the FcγRI receptor

CVVWMGFQQVC
binding to the poly Ig receptor [2]: shown to bind the poly Ig receptor
SC binding of single phage clones (ELISA) [2]: SC binding

SpsA
blocking of phage binding to SC (SC): blocked phage from binding to the receptor for both peptides

CSWIPGVGLVC
binding to the FcγRI receptor (FcγRI receptor): shown to bind the FcγRI receptor

CRSMVMLRVRC
binding to the FcγRI receptor (FcγRI receptor): shown to bind the FcγRI receptor

CLRSGANC
binding to the FcγRI receptor (FcγRI receptor): shown to bind the FcγRI receptor

CLRSGRAC
binding to the FcγRI receptor (FcγRI receptor): shown to bind the FcγRI receptor

CRRATAGCAGC
binding to the FcγRI receptor (FcγRI receptor): shown to bind the FcγRI receptor

CFPVGRATC
binding to the FcγRI receptor (FcγRI receptor): shown to bind the FcγRI receptor

CQDPICFCGADGACYCTSRNC
binding to the poly Ig receptor [2]: shown to bind the poly Ig receptor
SC binding of single phage clones (ELISA) [2]: positive

CLYGDELC
binding to the FcγRI receptor (FcγRI receptor): shown to bind the FcγRI receptor
